Source: patent US11371056B2, “HPPD variants and methods of use” (BASF Agricultural Solutions Seed US LLC, priority 2017, dated 2022)
Positions count from the first letter of the chain named.

B1: SEQ ID NO:48 (protein)
chain: MADLYENPMGLMGFEFIEFASPTPGTLEPIFEIMGFTKVATHRSKNVHLYRQGEINLILNNEPNSIASYFAAEHGPSVCGMAFRVKDSQKAYNRALELGAQPIHIDTGPMELNLPAIKGIGGAPLYLIDRFGEGSSIYDIDFVYLEGVERNPVGAGLKVIDHLTHNVYRGRMVYWANFYEKLFNFREARYFDIKGEYTGLTSKAMSAPDGMIKIPLNEESSKGAGQIEEFLMQFNGEGIQHVAFLTDDLVKTWDALKKIGMRFMTAPGDEYYEMLEGRLPDHGEPVDQLQARGILLDGSSVEGDKRLLLQIFSETLMGPVFFEFIQRKGDDGFGPDSFKVLFESIERDQVRRGVLTAD
modifications: mutant HPPD polypeptide
B2: SEQ ID NO:64 (protein)
chain: B1 chain with M264L, T315Q, D336H, I345M
modifications: mutant HPPD polypeptide
B3: SEQ ID NO:55 (protein)
chain: B1 chain with K213R, M264L, T315K, D336H, I345M
modifications: mutant HPPD polypeptide
B4: SEQ ID NO:49 (protein)
chain: B1 chain with T315Q, D336H
modifications: mutant HPPD polypeptide
B5: SEQ ID NO:66 (protein)
chain: B1 chain with K213R, M264L, T315Q, S344Q
modifications: mutant HPPD polypeptide
B6: SEQ ID NO:41 (protein)
chain: B1 chain with T315R, I345M
modifications: mutant HPPD polypeptide
B7: SEQ ID NO:45 (protein)
chain: B1 chain with D336H, I345M
modifications: mutant HPPD polypeptide
B8: SEQ ID NO:43 (protein)
chain: B1 chain with T315K, D336H, I345M
modifications: mutant HPPD polypeptide
B9: SEQ ID NO:52 (protein)
chain: B1 chain with K213R, P215A, T315R, D336H
modifications: mutant HPPD polypeptide
B10: SEQ ID NO:67 (protein)
chain: B1 chain with K213R, P215A, M264L, T315Q, I345V
modifications: mutant HPPD polypeptide
B11: SEQ ID NO:46 (protein)
chain: B1 chain with T315K
modifications: mutant HPPD polypeptide
B12: SEQ ID NO:54 (protein)
chain: B1 chain with K213R, M264L, T315K, D336H, S344Q, I345M
modifications: mutant HPPD polypeptide
B13: SEQ ID NO:37 (protein)
chain: B1 chain with K213R, T315R, D336H, S344Q, I345M
modifications: mutant HPPD polypeptide
B14: SEQ ID NO:39 (protein)
chain: B1 chain with T315K, I345M
modifications: mutant HPPD polypeptide
B15: SEQ ID NO:51 (protein)
chain: B1 chain with K213R, P215A, T315Q, D336H
modifications: mutant HPPD polypeptide
B16: SEQ ID NO:59 (protein)
chain: B1 chain with K213R, M264L, T315K, S344Q, I345M
modifications: mutant HPPD polypeptide
B17: SEQ ID NO:63 (protein)
chain: B1 chain with P215A, M264L, T315K, D336H, S344Q, I345M
modifications: mutant HPPD polypeptide
B18: SEQ ID NO:42 (protein)
chain: B1 chain with I345M
modifications: mutant HPPD polypeptide
B19: SEQ ID NO:40 (protein)
chain: B1 chain with T315Q, I345M
modifications: mutant HPPD polypeptide
B20: SEQ ID NO:68 (protein)
chain: B1 chain with P215A, M264L, T315Q, S344Q
modifications: mutant HPPD polypeptide
B21: SEQ ID NO:44 (protein)
chain: B1 chain with T315Q, D336H, I345M
modifications: mutant HPPD polypeptide
B22: SEQ ID NO:69 (protein)
chain: B1 chain with T315Q
modifications: mutant HPPD polypeptide
B23: SEQ ID NO:60 (protein)
chain: B1 chain with M264L, T315K, S344Q, I345M
modifications: mutant HPPD polypeptide
B24: SEQ ID NO:65 (protein)
chain: B1 chain with K213R, M264L, T315K, S344Q
modifications: mutant HPPD polypeptide
B25: SEQ ID NO:34 (protein)
chain: B1 chain with K213R, D336H, I345M
modifications: mutant HPPD polypeptide
B26: SEQ ID NO:53 (protein)
chain: B1 chain with K213R, M264L, D336H, S344Q, I345M
modifications: mutant HPPD polypeptide
B27: SEQ ID NO:56 (protein)
chain: B1 chain with K213R, M264L, T315Q, D336H, S344Q, I345M
modifications: mutant HPPD polypeptide
B28: SEQ ID NO:47 (protein)
chain: B1 chain with T315R
modifications: mutant HPPD polypeptide
B29: SEQ ID NO:58 (protein)
chain: B1 chain with M264L, T315Q, D336H, S344Q, I345M
modifications: mutant HPPD polypeptide
B30: SEQ ID NO:50 (protein)
chain: B1 chain with D336H
modifications: mutant HPPD polypeptide
B31: SEQ ID NO:33 (protein)
chain: B1 chain with K213R, T315R, D336H, I345M
modifications: mutant HPPD polypeptide

The molecules below were run on Pseudomonas fluorescens HPPD polypeptide (wild-type and mutants) (assay: Coupled HPPD activity assay: turnover and residual turnover in crude HPPD polypeptide extracts with and without Cmpd. 1). Conditions: 100 μM Cmpd. 1, normalised to turnover without inhibitor.
Assay type: biochemical

| Molecule | Residual turnover [%] |
| --- | --- |
| B1 | 38% |
| B2 | 61% |
| B3 | 58% |
| B4 | 52% |
| B5 | 65% |
| B6 | 43% |
| B7 | 60% |
| B8 | 54% |
| B9 | 61% |
| B10 | 90% |
| B11 | 36% |
| B12 | 82% |
| B13 | 42% |
| B14 | 32% |
| B15 | 61% |
| B16 | 59% |
| B17 | 67% |
| B18 | 33% |
| B19 | 36% |
| B20 | 74% |
| B21 | 54% |
| B22 | 40% |
| B23 | 56% |
| B24 | 60% |
| B25 | 53% |
| B26 | 73% |
| B27 | 75% |
| B28 | 68% |
| B29 | 81% |
| B30 | 54% |

Same assay, conditions: absence of Cmpd. 1; changes in absorbance (OD) at 320 nm in the coupled assay, 30 min

| Molecule | Turnover |
| --- | --- |
| B31 | 0.015 |
| B1 | 0.161 |
| B2 | 0.295 |
| B3 | 0.303 |
| B4 | 0.318 |
| B5 | 0.187 |
| B6 | 0.247 |
| B7 | 0.275 |
| B8 | 0.291 |
| B9 | 0.173 |
| B10 | 0.141 |
| B11 | 0.162 |
| B12 | 0.274 |
| B13 | 0.106 |
| B14 | 0.176 |
| B15 | 0.173 |

| Molecule | Turnover |
| --- | --- |
| B16 | 0.215 |
| B17 | 0.209 |
| B18 | 0.209 |
| B19 | 0.204 |
| B20 | 0.182 |
| B21 | 0.272 |
| B22 | 0.173 |
| B23 | 0.252 |
| B24 | 0.204 |
| B25 | 0.278 |
| B26 | 0.339 |
| B27 | 0.339 |
| B28 | 0.09 |
| B29 | 0.339 |
| B30 | 0.272 |

Same assay, conditions: presence of 100 μM Cmpd. 1; changes in absorbance (OD) at 320 nm in the coupled assay, 30 min

| Molecule | Residual turnover |
| --- | --- |
| B31 | 0.014 |
| B1 | 0.061 |
| B2 | 0.181 |
| B3 | 0.177 |
| B4 | 0.165 |
| B5 | 0.122 |
| B6 | 0.105 |
| B7 | 0.164 |
| B8 | 0.157 |
| B9 | 0.105 |
| B10 | 0.127 |
| B11 | 0.059 |
| B12 | 0.224 |
| B13 | 0.045 |
| B14 | 0.057 |
| B15 | 0.106 |

| Molecule | Residual turnover |
| --- | --- |
| B16 | 0.126 |
| B17 | 0.139 |
| B18 | 0.068 |
| B19 | 0.073 |
| B20 | 0.134 |
| B21 | 0.148 |
| B22 | 0.069 |
| B23 | 0.14 |
| B24 | 0.123 |
| B25 | 0.148 |
| B26 | 0.246 |
| B27 | 0.253 |
| B28 | 0.061 |
| B29 | 0.276 |
| B30 | 0.148 |
